Patent publication US20110236397

Legend:
[1] = system: full-length CD2AP, GFP-tagged (GFP-CD2AP fusion protein, 98 kD)
[2] = system: C-terminal FLAG-tagged CD2AP (71 kD)
[3] = system: CD2AP with the cathepsin L cleavage site LSAAE deleted

Chain of purified FLAG-CD2AP (chain, as listed by the source): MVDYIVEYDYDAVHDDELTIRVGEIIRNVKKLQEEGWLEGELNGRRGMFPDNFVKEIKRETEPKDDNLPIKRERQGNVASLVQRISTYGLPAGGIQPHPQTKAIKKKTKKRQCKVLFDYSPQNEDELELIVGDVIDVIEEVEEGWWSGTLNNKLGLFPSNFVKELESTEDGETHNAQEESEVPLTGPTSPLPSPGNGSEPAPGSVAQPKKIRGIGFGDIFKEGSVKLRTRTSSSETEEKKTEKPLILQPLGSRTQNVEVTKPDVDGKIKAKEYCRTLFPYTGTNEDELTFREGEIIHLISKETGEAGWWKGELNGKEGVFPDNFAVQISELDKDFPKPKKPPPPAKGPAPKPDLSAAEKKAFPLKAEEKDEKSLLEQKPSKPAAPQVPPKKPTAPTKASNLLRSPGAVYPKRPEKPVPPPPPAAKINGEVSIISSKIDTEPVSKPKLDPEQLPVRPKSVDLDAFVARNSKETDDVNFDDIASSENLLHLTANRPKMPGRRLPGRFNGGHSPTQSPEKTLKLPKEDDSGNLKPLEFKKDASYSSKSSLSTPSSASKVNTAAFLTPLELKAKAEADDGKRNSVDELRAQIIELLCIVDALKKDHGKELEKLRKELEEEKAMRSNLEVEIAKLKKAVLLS

Substance: purified cathepsin L enzyme (Sigma, specific activity 4.13 U/mg)
- in vitro cleavage assay, immunoblot [1]: At neutral pH, CD2AP was cleaved into a stable 55 kD fragment as detected with an anti-GFP antibody
- in vitro cleavage assay, silver stain (purified FLAG-CD2AP): cleavage assays performed at neutral conditions (pH 7.0) yielded a stable 32 kD CD2AP fragment (p32)
- in vitro cleavage assay, immunoblot [2]: This experiment yielded a C-terminal 44 kD fragment of CD2AP; the anti-FLAG antibody also detected a strong band corresponding to p32 fragment
- in vitro cleavage assay, immunoblot [3]: In absence of this cleavage site, the characteristic p32 fragment was no longer observed after enzymatic digest with cathepsin L enzyme
